From patent publication US20220106400A1 (published 2022)

T1: human GITR on cells (human, UniProt Q9Y5U5 26-241)
T1 chain: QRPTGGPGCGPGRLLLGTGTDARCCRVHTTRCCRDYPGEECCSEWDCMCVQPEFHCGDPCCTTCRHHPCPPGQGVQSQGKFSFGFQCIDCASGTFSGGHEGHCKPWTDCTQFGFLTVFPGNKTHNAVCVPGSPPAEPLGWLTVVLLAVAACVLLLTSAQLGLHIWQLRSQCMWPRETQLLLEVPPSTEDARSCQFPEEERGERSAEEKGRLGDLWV

B1: anti-GITR-IgG2-IgG1.1 (antibody)
heavy: QVQLVESGGGVVQPGRSLRLSCAASGFTFSSYGMHWVRQAPGKGLEWVAVIWYEGSNKYYADSVKGRFTISRDNSKNTLYLQMNSLRAEDTAVYYCARGGSMVRGDYYYGMDVWGQGTTVTVSSASTKGPSVFPLAPCSRSTSESTAALGCLVKDYFPEPVTVSWNSGALTSGVHTFPAVLQSSGLYSLSSVVTVPSSNFGTQTYTCNVDHKPSNTKVDKTVERKCCVECPPCPAPPVAGPSVFLFPPKPKDTLMISRTPEVTCVVVDVSHEDPEVKFNWYVDGVEVHNAKTKPREEQYNSTYRVVSVLTVLHQDWLNGKEYKCKVSNKALPSSIEKTISKAKGQPREPQVYTLPPSREEMTKNQVSLTCLVKGFYPSDIAVEWESNGQPENNYKTTPPVLDSDGSFFLYSKLTVDKSRWQQGNVFSCSVMHEALHNHYTQKSLSLSPG
light: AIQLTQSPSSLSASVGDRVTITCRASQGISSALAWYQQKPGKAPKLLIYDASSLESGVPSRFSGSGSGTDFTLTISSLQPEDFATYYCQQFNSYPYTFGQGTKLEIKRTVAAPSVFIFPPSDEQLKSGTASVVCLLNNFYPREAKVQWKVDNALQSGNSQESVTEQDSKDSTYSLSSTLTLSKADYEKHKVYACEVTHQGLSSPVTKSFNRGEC
B2: anti-GITR-IgG2 (antibody)
heavy: QVQLVESGGGVVQPGRSLRLSCAASGFTFSSYGMHWVRQAPGKGLEWVAVIWYEGSNKYYADSVKGRFTISRDNSKNTLYLQMNSLRAEDTAVYYCARGGSMVRGDYYYGMDVWGQGTTVTVSSASTKGPSVFPLAPCSRSTSESTAALGCLVKDYFPEPVTVSWNSGALTSGVHTFPAVLQSSGLYSLSSVVTVPSSNFGTQTYTCNVDHKPSNTKVDKTVERKCCVECPPCPAPPVAGPSVFLFPPKPKDTLMISRTPEVTCVVVDVSHEDPEVQFNWYVDGVEVHNAKTKPREEQFNSTFRVVSVLTVVHQDWLNGKEYKCKVSNKGLPAPIEKTISKTKGQPREPQVYTLPPSREEMTKNQVSLTCLVKGFYPSDIAVEWESNGQPENNYKTTPPMLDSDGSFFLYSKLTVDKSRWQQGNVFSCSVMHEALHNHYTQKSLSLSPGK
light: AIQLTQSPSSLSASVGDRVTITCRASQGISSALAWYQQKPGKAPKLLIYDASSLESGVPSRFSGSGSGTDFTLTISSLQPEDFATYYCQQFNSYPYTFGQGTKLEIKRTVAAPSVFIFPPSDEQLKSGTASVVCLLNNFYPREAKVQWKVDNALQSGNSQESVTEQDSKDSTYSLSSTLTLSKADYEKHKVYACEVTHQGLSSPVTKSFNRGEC

Molecular target: T1, human GITR on cells
Assay: FACS binding to anti-CD3/CD28-activated human CD4 T cells

EC50	Binder
0.163 nM	B1
0.277 nM	B2
